Reference: article PMC9482650, “Quantitative fragmentomics allow affinity mapping of interactomes” (Nature Communications, 2022)

T1: MPP7, Q5T2T1
T1 sequence (Q5T2T1 134-230, limits assumed, looked up): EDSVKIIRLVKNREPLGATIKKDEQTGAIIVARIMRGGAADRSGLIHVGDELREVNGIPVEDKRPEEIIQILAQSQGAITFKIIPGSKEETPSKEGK

T2: HTRA4, P83105
T2 sequence (P83105 378-476, limits assumed, looked up): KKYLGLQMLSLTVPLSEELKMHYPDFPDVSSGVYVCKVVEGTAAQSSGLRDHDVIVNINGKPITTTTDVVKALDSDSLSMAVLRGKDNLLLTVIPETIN

T3: LNX2_3, Q8N448
T3 sequence (Q8N448 463-564, limits assumed, looked up): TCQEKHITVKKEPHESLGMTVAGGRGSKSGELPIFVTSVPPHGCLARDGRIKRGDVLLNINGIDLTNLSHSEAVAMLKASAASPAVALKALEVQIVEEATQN

T4: HTRA3, P83110
T4 sequence (P83110 354-453, limits assumed, looked up): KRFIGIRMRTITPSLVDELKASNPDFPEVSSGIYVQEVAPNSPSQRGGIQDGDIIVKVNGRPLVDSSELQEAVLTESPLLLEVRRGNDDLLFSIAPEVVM

T5: SNTG2, Q9NY99
T5 sequence (Q9NY99 68-166, limits assumed, looked up): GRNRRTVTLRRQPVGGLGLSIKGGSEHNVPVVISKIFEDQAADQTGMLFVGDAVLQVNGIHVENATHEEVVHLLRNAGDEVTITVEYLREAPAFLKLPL

T6: CARD11, Q9BXL7
T6 sequence (Q9BXL7 662-765, limits assumed, looked up): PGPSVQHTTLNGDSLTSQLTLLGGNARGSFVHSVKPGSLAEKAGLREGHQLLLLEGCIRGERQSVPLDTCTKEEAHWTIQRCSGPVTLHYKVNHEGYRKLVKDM

T7: PCLO, Q9Y6V0
T7 sequence (Q9Y6V0 4491-4600, limits assumed, looked up): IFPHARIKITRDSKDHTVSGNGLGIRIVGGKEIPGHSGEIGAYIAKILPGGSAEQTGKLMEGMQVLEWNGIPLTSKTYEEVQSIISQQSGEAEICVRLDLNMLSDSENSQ

T8: PARD3B_1, Q8TEW8
T8 sequence (Q8TEW8 196-299, limits assumed, looked up): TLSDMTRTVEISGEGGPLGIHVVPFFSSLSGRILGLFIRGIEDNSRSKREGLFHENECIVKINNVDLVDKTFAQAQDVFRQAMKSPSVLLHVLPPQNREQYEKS

T9: SYNJ2BP, P57105
T9 sequence (P57105 8-110, limits assumed, looked up): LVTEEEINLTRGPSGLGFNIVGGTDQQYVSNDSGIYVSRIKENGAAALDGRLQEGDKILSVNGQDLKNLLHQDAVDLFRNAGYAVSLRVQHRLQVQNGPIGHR

T10: SNTA1, Q13424
T10 sequence (Q13424 82-180, limits assumed, looked up): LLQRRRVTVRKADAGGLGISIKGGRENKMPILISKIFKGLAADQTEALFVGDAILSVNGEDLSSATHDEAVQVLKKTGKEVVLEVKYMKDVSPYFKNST

T11: SNTG1, Q9NSN8
T11 sequence (Q9NSN8 52-150, limits assumed, looked up): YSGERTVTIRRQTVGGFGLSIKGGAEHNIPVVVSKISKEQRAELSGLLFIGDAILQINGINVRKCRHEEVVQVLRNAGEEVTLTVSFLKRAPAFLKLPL


Columns and labels:
Test in all cases: holdup assay
Parameters in all cases: key: below the threshold = too weak to quantify, mostly under pKd 3.1 to 4
Settings in all cases: plain residues with an end cap or a label only (N-terminal biotin on a linker: ado-ado)
MPP7, Q5T2T1 = biological target: T1, MPP7, Q5T2T1
DLG2_3, Q15700 = biological target: DLG2_3, Q15700
HTRA4, P83105 = biological target: T2, HTRA4, P83105
SCRIB_2, Q14160 = biological target: SCRIB_2, Q14160
IL16_1, Q14005 = biological target: IL16_1, Q14005
Inadl_9, Q8NI35 = biological target: Inadl_9, Q8NI35
Inadl_3, Q8NI35 = biological target: Inadl_3, Q8NI35
LNX2_3, Q8N448 = biological target: T3, LNX2_3, Q8N448
Inadl_4, Q8NI35 = biological target: Inadl_4, Q8NI35
HTRA3, P83110 = biological target: T4, HTRA3, P83110
AHNAK1, Q09666 = biological target: AHNAK1, Q09666
SNTG2, Q9NY99 = biological target: T5, SNTG2, Q9NY99
TJP1_2, Q07157 = biological target: TJP1_2, Q07157
CARD11, Q9BXL7 = biological target: T6, CARD11, Q9BXL7
PCLO, Q9Y6V0 = biological target: T7, PCLO, Q9Y6V0
NHERF2_2, Q15599 = biological target: NHERF2_2, Q15599
MAGI2_5, Q86UL8 = biological target: MAGI2_5, Q86UL8
NOS1, P29475 = biological target: NOS1, P29475
PARD3B_1, Q8TEW8 = biological target: T8, PARD3B_1, Q8TEW8
MAST1, Q9Y2H9 = biological target: MAST1, Q9Y2H9
PARD3_3, Q8TEW0 = biological target: PARD3_3, Q8TEW0
NHERF4_1, Q86UT5-2 = biological target: NHERF4_1, Q86UT5-2
SYNJ2BP, P57105 = biological target: T9, SYNJ2BP, P57105
SNTA1, Q13424 = biological target: T10, SNTA1, Q13424
ARHGEF12, Q9NZN5-2 = biological target: ARHGEF12, Q9NZN5-2
SNTG1, Q9NSN8 = biological target: T11, SNTG1, Q9NSN8

NHERF2_2, Q15599, sequence (Q15599 142-238): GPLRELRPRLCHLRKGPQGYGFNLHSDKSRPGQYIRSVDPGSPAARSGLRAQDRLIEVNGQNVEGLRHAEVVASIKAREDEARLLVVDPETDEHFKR
AHNAK1, Q09666, sequence (Q09666 4-100): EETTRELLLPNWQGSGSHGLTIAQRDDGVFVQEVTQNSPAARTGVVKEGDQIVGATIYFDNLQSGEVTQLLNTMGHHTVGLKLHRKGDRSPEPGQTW
TJP1_2, Q07157, sequence (Q07157 181-274): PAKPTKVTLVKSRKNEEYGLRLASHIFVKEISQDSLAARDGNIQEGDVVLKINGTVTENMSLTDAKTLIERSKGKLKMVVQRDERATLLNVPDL
SCRIB_2, Q14160, sequence (Q14160 857-960): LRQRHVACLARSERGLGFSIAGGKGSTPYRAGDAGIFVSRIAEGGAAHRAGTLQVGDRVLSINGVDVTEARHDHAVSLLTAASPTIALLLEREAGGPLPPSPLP
PARD3_3, Q8TEW0, sequence (Q8TEW0 582-685): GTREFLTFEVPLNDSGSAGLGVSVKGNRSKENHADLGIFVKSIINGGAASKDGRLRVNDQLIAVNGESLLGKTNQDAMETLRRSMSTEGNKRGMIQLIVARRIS
IL16_1, Q14005, sequence (Q14005 210-306): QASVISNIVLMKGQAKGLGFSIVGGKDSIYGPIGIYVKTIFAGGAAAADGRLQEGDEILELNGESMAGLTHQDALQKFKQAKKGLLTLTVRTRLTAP
Inadl_9, Q8NI35, sequence (Q8NI35 1530-1615): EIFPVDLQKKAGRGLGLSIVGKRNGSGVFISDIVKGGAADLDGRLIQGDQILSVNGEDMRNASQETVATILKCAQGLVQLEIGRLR
ARHGEF12, Q9NZN5-2, sequence (Q9NZN5 other isoform, or with tags, fused parts or gaps): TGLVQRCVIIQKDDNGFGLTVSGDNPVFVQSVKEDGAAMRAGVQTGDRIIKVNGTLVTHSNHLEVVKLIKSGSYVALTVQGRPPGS
MAGI2_5, Q86UL8, sequence (Q86UL8 915-1017): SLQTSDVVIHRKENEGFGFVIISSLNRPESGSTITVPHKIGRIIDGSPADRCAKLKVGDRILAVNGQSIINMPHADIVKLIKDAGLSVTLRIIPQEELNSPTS
Inadl_3, Q8NI35, sequence (Q8NI35 359-469): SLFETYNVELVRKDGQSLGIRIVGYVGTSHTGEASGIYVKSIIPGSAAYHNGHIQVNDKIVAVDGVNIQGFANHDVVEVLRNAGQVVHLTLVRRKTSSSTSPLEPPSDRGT
NOS1, P29475, sequence (P29475 9-101): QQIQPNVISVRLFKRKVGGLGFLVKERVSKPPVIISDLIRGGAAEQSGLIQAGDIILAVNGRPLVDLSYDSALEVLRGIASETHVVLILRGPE
Inadl_4, Q8NI35, sequence (Q8NI35 547-651): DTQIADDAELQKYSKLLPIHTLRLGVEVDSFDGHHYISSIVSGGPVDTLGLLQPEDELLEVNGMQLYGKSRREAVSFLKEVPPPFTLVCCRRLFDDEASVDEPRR
MAST1, Q9Y2H9, sequence (Q9Y2H9 962-1065): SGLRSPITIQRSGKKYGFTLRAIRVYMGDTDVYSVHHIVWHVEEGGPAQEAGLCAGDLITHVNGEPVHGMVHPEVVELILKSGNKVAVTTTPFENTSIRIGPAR
NHERF4_1, Q86UT5-2, sequence (Q86UT5 other isoform, or with tags, fused parts or gaps): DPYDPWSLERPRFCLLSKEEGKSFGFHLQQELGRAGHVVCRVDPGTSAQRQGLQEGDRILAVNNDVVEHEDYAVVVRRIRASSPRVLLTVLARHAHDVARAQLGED

pKd (MPP7, Q5T2T1)	pKd (DLG2_3, Q15700)	pKd (HTRA4, P83105)	pKd (SCRIB_2, Q14160)	pKd (IL16_1, Q14005)	pKd (Inadl_9, Q8NI35)	pKd (Inadl_3, Q8NI35)	pKd (LNX2_3, Q8N448)	pKd (Inadl_4, Q8NI35)	pKd (HTRA3, P83110)	pKd (AHNAK1, Q09666)	pKd (SNTG2, Q9NY99)	pKd (TJP1_2, Q07157)	pKd (CARD11, Q9BXL7)	pKd (PCLO, Q9Y6V0)	pKd (NHERF2_2, Q15599)	pKd (MAGI2_5, Q86UL8)	pKd (NOS1, P29475)	pKd (PARD3B_1, Q8TEW8)	pKd (MAST1, Q9Y2H9)	also measured	Binder
below the threshold	3.7	below the threshold	below the threshold	below the threshold	below the threshold	below the threshold	below the threshold	below the threshold	below the threshold	below the threshold	below the threshold	below the threshold	below the threshold	below the threshold	4.7	4.1	below the threshold	4.49	4.77	pKd (PARD3_3, Q8TEW0): below the threshold; pKd (NHERF4_1, Q86UT5-2): 4.35; pKd (SYNJ2BP, P57105): below the threshold; pKd (SNTA1, Q13424): below the threshold; pKd (ARHGEF12, Q9NZN5-2): below the threshold; pKd (SNTG1, Q9NSN8): below the threshold	NNMAFETTHF [SLC5A12, Q1EHB4]
below the threshold	4.19	4.33	4.02	3.63	4.1	below the threshold	below the threshold	below the threshold	4.45	below the threshold	3.67	below the threshold	below the threshold	below the threshold	below the threshold	4.04	4.07	below the threshold	4.35	pKd (PARD3_3, Q8TEW0): below the threshold; pKd (NHERF4_1, Q86UT5-2): below the threshold; pKd (SYNJ2BP, P57105): 5.37; pKd (SNTA1, Q13424): 3.67; pKd (ARHGEF12, Q9NZN5-2): 3.51; pKd (SNTG1, Q9NSN8): below the threshold	HLSTRQGTCV [ATRNL1, Q5VV63]
below the threshold	below the threshold	below the threshold	below the threshold	below the threshold	below the threshold	4.7	below the threshold	below the threshold	below the threshold	below the threshold	3.95	below the threshold	below the threshold	below the threshold	5.14	4.4	below the threshold	4.43	5.01	pKd (PARD3_3, Q8TEW0): 4.33; pKd (NHERF4_1, Q86UT5-2): 3.56; pKd (SYNJ2BP, P57105): below the threshold; pKd (SNTA1, Q13424): 4.09; pKd (ARHGEF12, Q9NZN5-2): 3.61; pKd (SNTG1, Q9NSN8): below the threshold	LLQEEWETVM [PTH1R, Q03431]
below the threshold	below the threshold	3.89	below the threshold	below the threshold	below the threshold	below the threshold	below the threshold	below the threshold	below the threshold	below the threshold	below the threshold	below the threshold	below the threshold	below the threshold	4.44	below the threshold	below the threshold	3.72	4.45	pKd (PARD3_3, Q8TEW0): below the threshold; pKd (NHERF4_1, Q86UT5-2): 3.74; pKd (SYNJ2BP, P57105): below the threshold; pKd (SNTA1, Q13424): below the threshold; pKd (ARHGEF12, Q9NZN5-2): 4.24; pKd (SNTG1, Q9NSN8): below the threshold	SSSVNVSSNL [CXCR1, P25024]
